Results from patent US20250026842A1 (JIANGSU HENGRUI PHARMACEUTICALS, published 2025).
Where two headings read alike, the source gives them in different places.

Legend:
[1] = biological target: T1, human 4-1BB on the surface of HEK293-Hu4-1BB cells (human, UniProt Q07011 24-255); assay: cell-based or functional assay
[2] = biological target: T1, human 4-1BB on the surface of …; assay: FACS on HEK293 cells highly expressing human 4-1BB
From the text: (§1) HEK293-Hu4-1BB cells were obtained by transient transfection of HEK293 cells (ATCC CRL-1573) with a gene expressing human 4-1BB protein or polypeptide (CD137 cDNA ORF Clone, Human, C-OFPSpark tag; purchased from Sino Biological, Cat #HG10041-ACR). The cell culture medium was DMEM (Gibco, Cat #11995065) containing 10% fetal bovine serum. The experimental medium was sterile PBS (phosphate-buffered saline, pH 7.40) containing 2% fetal bovine serum. HEK293-Hu4-1BB cells were washed with the experimental medium twice and seeded into a 96-well U-bottom plate at 1×10⁵ HEK293-Hu4-1BB cells per well. Different concentrations of the anti-4-1BB single-domain antibody VHH-Fc samples to be tested were added. The cells were incubated at 4° C. for 1 h and then washed with the experimental medium twice. Then the goat anti-human IgG (H+L) Alexa Fluor 488 antibody (Thermo, Cat #A11013) was added. After two washes, fluorescence signal values were measured using a flow cytometer. Urelumab was used as a positive control.
The antigen-binding activity of the humanized antibodies was measured using a FACS assay as described in Example 2.

[3] = biological target: T1, human 4-1BB on the surface of …; assay: cell-based or functional assay; remark: listed apart in the source
[4] = biological target: T1, human 4-1BB on the surface of …; assay: FACS on HEK293 cells highly expressing human 4-1BB; remark: listed apart in the source
From the text: as §1
A comparison of the antigen-binding activity of C5_V2 and C5_V2-YTI was made using a FACS assay as described in Example 5.

T1 sequence (Q07011 24-255): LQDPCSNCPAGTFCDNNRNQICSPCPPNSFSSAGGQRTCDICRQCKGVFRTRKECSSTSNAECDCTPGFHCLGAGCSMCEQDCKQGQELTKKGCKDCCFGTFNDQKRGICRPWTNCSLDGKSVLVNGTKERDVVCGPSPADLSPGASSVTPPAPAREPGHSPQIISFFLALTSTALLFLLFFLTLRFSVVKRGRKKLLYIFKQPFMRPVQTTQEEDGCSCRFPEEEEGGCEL

B1: Urelumab (antibody, V domains shown)
VH: QVQLQQWGAGLLKPSETLSLTCAVYGGSFSGYYWSWIRQSPEKGLEWIGEINHGGYVTYNPSLESRVTISVDTSKNQFSLKLSSVTAADTAVYYCARDYGPGNYDWYFDLWGRGTLVTVSS
VL: EIVLTQSPATLSLSPGERATLSCRASQSVSSYLAWYQQKPGQAPRLLIYDASNRATGIPARFSGSGSGTDFTLTISSLEPEDFAVYYCQQRSNWPPALTFGGGTKVEIK
With B1 the “EC50, 4-1BB/NF-κB luciferase reporter, FcγRIIb cross-linking” value [1] was 0.027 nM, the “EC50, 4-1BB/NF-κB luciferase reporter, no FcγRIIb cross-linking” value [1] was 2.19 nM and the “Emax, 4-1BB/NF-κB luciferase reporter, FcγRIIb cross-linking” value [1] was 9.39 relative to antibody-free group. For the same binder, the “Emax, 4-1BB/NF-κB luciferase reporter, no FcγRIIb cross-linking” value [1] was 4.3 relative to antibody-free group, the EC50 [2] was 1.18 nM and the Maximal fluorescence value [2] was 1000. The “Factor of variation in Emax, FcγRIIb-mediated activation of HEK293-4-1BB cells” value [3] was 2.61 fold, the “Factor of variation in Emax, activation of HEK293-4-1BB cells” value [3] was 1.7 fold and the EC50 [4] was 1.64 nM. It also gave a Maximal fluorescence value [4] of 39700.
